Assay results taken from PMC6465249 (Cell Discovery, 2019).

B1: AF4H1K1 Fab (Fab, V domains shown)
VH: QVQLVESGGGVVQPGTSLRLSCEASGFTSSAYAMHWVRQAPGKGLEWVAVITFDGGYQYYADSVKGRFTISRDISRNTLHLHMNSLRAEDTAVYYCARDPLTKLLPFDWVSGGYFDYWGQGTLVTVSS
VL: not shown
notes: also called H1 paired with K1
B2: AF4H1/L1CDR3m (antibody, V domains shown)
VH: B1 VH
VL: SYELTQPPSVSVSPGQTASITCSGDKLGDKYACWYQQKPGQSPVLVIYQDSKRPSGIPERFSGSNSGNTATLTISGTQAMDEADYYCQQYGSSFTFGTGTKVTVL
notes: IgG; copies: 2 + 2
B3: AF4H1/FI6v3L Fab (Fab, V domains shown)
VH: B1 VH
VL: not shown
notes: also called AF4H1/FI6L; hybrid MAb with heavy chain from AF4H1K1 and light chain from FI6v3
B4: AF4H1K1 Fab (Fab, V domains shown)
VH: B1 VH
VL: not shown
notes: also called AF4H1K1 Fab fragment

Tests used:
Details in all cases: both partners purified
[1] = target: Recombinant hemagglutinin of H10N8 A/Jiangxi-Donghu/346/2013, ectodomain, monomeric (Influenza A virus …, strain); test: SPR
[2] = target: Recombinant hemagglutinin of H4N6 A/duck/Czech/1956, ectodomain, monomeric (Influenza A virus A/duck/Czech/1956 …, strain); test: SPR
[3] = target: Recombinant hemagglutinin of H7N9 A/Anhui/1/2013, ectodomain (Influenza A virus A/Anhui/1/2013 …, UniProt A0A024E3P0, strain); test: SPR
[4] = target: Recombinant hemagglutinin of H14N6 A/long-tailed duck/Wisconsin/10OS3912/2010, ectodomain, monomeric (Influenza A virus A/long-tailed …, UniProt G5DSS3, strain); test: SPR
[5] = target: Recombinant hemagglutinin of H3N2 A/Aichi/2/1968, ectodomain, monomeric (Influenza A virus A/Aichi/2/1968 (H3N2), strain); test: SPR
[6] = target: T1, H3 HA (strain not given) (Influenza A virus A/Aichi/2/1968 (H3N2)); test: ELISA
[7] = target: Recombinant hemagglutinin of H15N8 A/duck/Australia/341/1983, ectodomain, monomeric (Influenza A virus …, UniProt Q82565, strain); test: SPR
[8] = target: T1, H3 HA (strain not given); test: SPR
[9] = target: H14 HA (H14N6 A/long-tailed duck/Wisconsin/10OS3912/2010) (Influenza A virus A/long-tailed …, UniProt G5DSS3); test: SPR

| Binder | Kd [1] [nM] | Kd [2] [nM] | Kd [3] [nM] | Kd [4] [nM] | Kd [5] [nM] | binding result [6] | Kd [7] [nM] | binding result [8] | binding result [9] |
| --- | --- | --- | --- | --- | --- | --- | --- | --- | --- |
| B1 | 21 | 9 | 14 | 16 | 0.79 |  |  |  |  |
| B2 |  |  |  |  |  | no binding |  |  |  |
| B3 | 37.7 | 1.93 | 11.2 | 15.9 | 0.0764 |  | 518 |  |  |
| B4 |  |  |  |  |  |  |  | binds | binds |
